Measured values reported in paper PMC11335189, “Revealing molecular determinants governing mambalgin-3 pharmacology at acid-sensing ion channel 1 variants” (Cellular and Molecular Life Sciences: CMLS, 2024).
Positions count from the first letter of the chain named.

T1: rat acid-sensing ion channel 1a (rat) (UniProt P55926)
T1 sequence: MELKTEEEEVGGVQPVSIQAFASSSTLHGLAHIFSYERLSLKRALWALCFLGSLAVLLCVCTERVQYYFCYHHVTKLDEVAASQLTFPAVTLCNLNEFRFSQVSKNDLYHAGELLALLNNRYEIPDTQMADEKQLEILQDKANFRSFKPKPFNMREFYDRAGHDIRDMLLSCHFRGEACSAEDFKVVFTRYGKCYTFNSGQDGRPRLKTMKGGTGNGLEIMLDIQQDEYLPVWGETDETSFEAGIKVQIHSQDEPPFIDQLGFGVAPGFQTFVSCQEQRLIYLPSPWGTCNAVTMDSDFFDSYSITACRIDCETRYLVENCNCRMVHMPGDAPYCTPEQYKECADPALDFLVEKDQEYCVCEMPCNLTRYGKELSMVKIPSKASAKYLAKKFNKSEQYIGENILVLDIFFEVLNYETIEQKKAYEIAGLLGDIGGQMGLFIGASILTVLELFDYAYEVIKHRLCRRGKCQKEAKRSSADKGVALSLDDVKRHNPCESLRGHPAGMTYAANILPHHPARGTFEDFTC

T2: rat acid-sensing ion channel 1b (rat)
T2 sequence (P55926 whole entry, looked up): T1 sequence

T3: human acid-sensing ion channel 1a (human) (UniProt P78348)
T3 sequence: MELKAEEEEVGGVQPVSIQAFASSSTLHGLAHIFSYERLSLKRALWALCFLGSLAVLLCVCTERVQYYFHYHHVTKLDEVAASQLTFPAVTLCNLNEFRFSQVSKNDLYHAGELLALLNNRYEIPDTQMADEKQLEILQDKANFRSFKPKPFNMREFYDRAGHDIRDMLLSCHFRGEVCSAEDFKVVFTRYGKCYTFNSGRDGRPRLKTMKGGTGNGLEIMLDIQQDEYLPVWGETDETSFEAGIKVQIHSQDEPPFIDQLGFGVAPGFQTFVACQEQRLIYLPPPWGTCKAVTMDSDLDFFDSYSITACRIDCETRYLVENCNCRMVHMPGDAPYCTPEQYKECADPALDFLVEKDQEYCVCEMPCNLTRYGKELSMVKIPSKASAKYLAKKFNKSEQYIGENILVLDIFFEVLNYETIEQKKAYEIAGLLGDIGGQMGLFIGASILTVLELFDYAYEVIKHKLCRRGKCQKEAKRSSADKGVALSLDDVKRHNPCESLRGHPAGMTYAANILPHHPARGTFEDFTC

T4: rASIC1a S83T/Q84E/R175C/E177G (rat) (UniProt P55926)
T4 sequence: T1 sequence with S83T, Q84E, R175C, E177G

T5: rASIC1a E362R (rat) (UniProt P55926)
T5 sequence: T1 sequence with E362R

B1: mambalgin-3 (peptide)
chain: SLKCYQHGKVVTCHRDMKFCYHNIGMPFRNLKLILQGCSSSCSETENNKCCSTDRCNK

Key:
[1] = target: T1, rat acid-sensing ion channel 1a (rat)
[2] = target: T2, rat acid-sensing ion channel 1b (rat)
[3] = target: T3, human acid-sensing ion channel 1a (human)
[4] = target: T4, rASIC1a S83T/Q84E/R175C/E177G (rat)
[5] = target: T2, rat acid-sensing ion channel 1b (rat); remark: listed apart in the source
[6] = target: rASIC1b T128S/E129Q/C208R/G210E (rat)
rASIC1a E362R (rat) = target: T5, rASIC1a E362R (rat)
[7] = target: T3, human acid-sensing ion channel 1a (human); remark: listed apart in the source
[8] = target: T1, rat acid-sensing ion channel 1a (rat); remark: listed apart in the source
[9] = target: T2, rat acid-sensing ion channel 1b (rat); remark: listed apart in the source

Molecule	fold loss of potency of current inhibition against wild-type Ma-3 (conditioning pH 7.45, stimulus pH 6) [1]	fold loss of potency of current inhibition against wild-type Ma-3 (conditioning pH 7.45, stimulus pH 6) [2]	fold loss of potency of current inhibition against wild-type Ma-3 (conditioning pH 7.45, stimulus pH 6) [3]	I/I (control) of pH 6-evoked currents with 300 nM peptide (I/I (control)) [4]	I/I (control) of pH 6-evoked currents with 300 nM peptide (I/I (control)) [5]	IC50 of inhibition of pH 6-evoked currents (conditioning pH 7.45) [6]	concentration-response of inhibition of pH 6-evoked currents (conditioning pH 7.45); fold change against wild-type rASIC1a (rASIC1a E362R (rat))	IC50 of inhibition of pH 6-evoked currents (two-electrode voltage clamp, Xenopus oocytes, conditioning pH 7.45) [7]	IC50 of inhibition of pH 6-evoked currents (two-electrode voltage clamp, Xenopus oocytes, conditioning pH 7.45) [8]	IC50 of inhibition of pH 6-evoked currents (two-electrode voltage clamp, Xenopus oocytes, conditioning pH 7.45) [9]	maximal inhibition of pH 6-evoked currents at saturating Ma-3 [9]
Ma-3 K8A (peptide)	4 fold	> 30 fold	4 fold	0.65	0.91	–	–	–	–	–	–
B1	–	–	–	0.48	0.4	18.5 nM	5 fold	25 nM	3.9 nM	38.3 nM	60%
